Experimental data taken from patent US20100331233A1, “CRYSTAL OF XPA AND ERCC1 COMPLEX AND USES THEREOF” (priority 2007, published 2010).
Substitutions are numbered along the chain they refer to. In names and notes the source's numbering stands. Entries after “also recorded” stand apart in the source; their conditions may differ. Where two headings read alike, the source gives them in different places.

T1: ERCC1-XPF (Homo sapiens, UniProt P07992)
T1 sequence (P07992 1-297): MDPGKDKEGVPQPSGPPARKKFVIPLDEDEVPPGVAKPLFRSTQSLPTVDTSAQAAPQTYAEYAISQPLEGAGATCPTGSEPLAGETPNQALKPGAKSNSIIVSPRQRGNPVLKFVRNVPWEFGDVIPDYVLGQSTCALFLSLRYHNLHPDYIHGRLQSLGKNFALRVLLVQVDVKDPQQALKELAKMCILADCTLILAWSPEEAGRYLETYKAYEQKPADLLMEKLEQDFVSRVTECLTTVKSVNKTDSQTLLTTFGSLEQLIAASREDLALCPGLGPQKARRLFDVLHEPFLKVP
T1 sequence (Q92889 1-916 partner): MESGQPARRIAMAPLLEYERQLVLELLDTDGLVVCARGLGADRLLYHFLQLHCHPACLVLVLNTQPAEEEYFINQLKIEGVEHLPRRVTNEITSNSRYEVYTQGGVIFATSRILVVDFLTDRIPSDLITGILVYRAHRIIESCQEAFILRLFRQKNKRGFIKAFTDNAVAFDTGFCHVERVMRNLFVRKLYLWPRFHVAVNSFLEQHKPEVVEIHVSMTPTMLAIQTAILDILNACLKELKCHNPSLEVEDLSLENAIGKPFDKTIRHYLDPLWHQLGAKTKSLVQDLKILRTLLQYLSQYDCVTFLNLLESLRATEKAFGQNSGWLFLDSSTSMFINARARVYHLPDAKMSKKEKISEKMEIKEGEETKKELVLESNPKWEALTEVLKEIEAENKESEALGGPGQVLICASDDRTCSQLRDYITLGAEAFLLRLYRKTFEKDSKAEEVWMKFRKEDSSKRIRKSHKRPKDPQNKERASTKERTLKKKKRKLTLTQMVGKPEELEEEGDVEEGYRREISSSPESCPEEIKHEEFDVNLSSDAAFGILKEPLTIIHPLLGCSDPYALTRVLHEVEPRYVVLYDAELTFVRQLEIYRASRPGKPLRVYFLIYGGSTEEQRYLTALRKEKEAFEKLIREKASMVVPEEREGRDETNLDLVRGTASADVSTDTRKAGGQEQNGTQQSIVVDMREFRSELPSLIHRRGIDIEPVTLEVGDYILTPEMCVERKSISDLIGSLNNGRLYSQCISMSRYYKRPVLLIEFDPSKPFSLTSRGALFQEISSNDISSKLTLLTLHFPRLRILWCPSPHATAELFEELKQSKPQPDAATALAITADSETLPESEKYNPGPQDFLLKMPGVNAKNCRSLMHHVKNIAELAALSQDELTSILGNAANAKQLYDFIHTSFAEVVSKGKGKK

T2: ERCC192-214 (Homo sapiens, UniProt P07992)
T2 construct: an ERCC1 central domain fragment consisting of amino acids 92-214 preceded by an N-terminal hexahistidine tag; made in house; host or cells: E. coli BL21(DE3), M9 minimal media with 15N-labeled NH4Cl
T2 sequence (P07992 92-214): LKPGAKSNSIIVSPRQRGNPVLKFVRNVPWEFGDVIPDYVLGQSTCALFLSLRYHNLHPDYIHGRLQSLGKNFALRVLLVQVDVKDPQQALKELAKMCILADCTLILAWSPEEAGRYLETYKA

T3: ERCC196-214 (central domain of ERCC1, N-terminal His6 tag) (Homo sapiens (Human), UniProt P07992 96-214)
T3 construct: not shown: N-terminal His6 tag
T3 sequence: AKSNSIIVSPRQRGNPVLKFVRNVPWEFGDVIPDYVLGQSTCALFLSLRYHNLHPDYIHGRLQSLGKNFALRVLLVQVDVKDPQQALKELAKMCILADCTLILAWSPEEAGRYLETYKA

B1: XPA59-93 (peptide)
peptide: MANVKAAPKIIDTGGGFILEEEEEEEQKIGKVVHQ
notes: Expressed in E. coli from pET19bpps; The N-terminal (His)10 tag was cleaved with Prescission protease; 15N-labeled in some NMR experiments; also called XPA59-93 peptide; XPA59-93 fragment
B2: ERCC1-N110A/Y145A: mutant ERCC1 protein with N110A/Y145A double mutation (protein)
chain: T1 sequence (P07992 1-297) with N110A, Y145A
modifications: left off: small tags and cut ends
notes: mutant ERCC1 protein with N110A/Y145A double mutation
B3: XPA67-80 peptide (peptide)
peptide: KIIDTGGGFILEEE
notes: Synthetic peptide made by solid phase methods, residues 67-80 of XPA; also called XPA peptide; synthetic XPA fragment
B4: XPA67-80^F75A mutant peptide (peptide)
peptide: KIIDTGGGAILEEE
notes: Synthetic peptide, alanine substitution at Phe75 of XPA67-80
B5: ERCC192-214 (central domain of ERCC1, N-terminal His6 tag) (other)
chain: MGSSHHHHHHSQDPLKPGAKSNSIIVSPRQRGNPVLKFVRNVPWEFGDVIPDYVLGQSTCALFLSLRYHNLHPDYIHGRLQSLGKNFALRVLLVQVDVKDPQQALKELAKMCILADCTLILAWSPEEAGRYLETYKA
notes: 15N-labeled (and perdeuterated) in some NMR experiments

Columns and labels:
[1] = test system: NER activity in HeLa cell extracts; test: In vitro NER assay: excision of a 1,3-intrastrand cisplatin adduct from plasmid in HeLa cell extract with XPA peptide; assay type: biochemical; details: HeLa cell free extract, plasmid with 1,3-cisplatin intrastrand crosslink, peptide 46 nM to 92 μM
[2] = biological target: T1, ERCC1-XPF; test: Nuclease assay: incision of stem-loop DNA substrate by purified ERCC1-XPF; assay type: biochemical; details: 92 μM peptide, 0.4 mM MnCl2
Description: Nuclease assay. A substrate consisting of a 12 base pair stem with a 22 nucleotide loop (5′-[…](T)22[…]; SEQ ID NO:7) was 5′ end labeled using a T4 polynucleotide kinase and [γ-^32P]-ATP. […] The final reaction volume was 15 μl.

[3] = biological target: T2, ERCC192-214; test: 15N HSQC NMR chemical shift perturbation of 15N-labeled ERCC1; assay type: binding; details: 15N HSQC
Description: FIG. 3 illustrates the binding of XPA67-80 in a shallow groove of ERCC1. (A) A comparison of the two dimensional HSQC spectra for ^15N-labeled ERCC192-214 in the presence and absence of an unlabeled XPA67-80 peptide. The ^15N HSQC spectra reveal significant chemical shift changes for some ERCC1 residues (labeled) in the absence or presence of unlabeled XPA67-80. (B) Combined average chemical shift perturbations are calculated as Δχave=[((Δχ1H)^2+(Δχ15N/5)^2)/2)]^1/2 for each backbone amide of ERCC1 and shown as a histogram.
NMR experiments and determination of the structure of XPA-ERCC1 complex. All NMR data were acquired in the NMR Buffer described above. […] Backbone assignments of the free ERCC192-214 and ERCC1-XPA67-80 complex were performed using a standard set of triple-resonance experiments: HNCA/HN(CO)CA, HN(CA)CB/HN(COCA)CB and HNCO/HN(CA)CO.
Identification of the ERCC1 binding site in complex with XPA. The binding site for XPA on the surface of ERCC1 (FIG. 2B) was identified using two dimensional HSQC experiments. […] The ^15N HSQC spectrum of the ERCC1-XPA complex is consistent with a slow-exchange regime, implying a dissociation equilibrium constant below 1 μM for the complex. The XPA binding site on the ERCC1 central domain was identified using the backbone assignments for […] alone and in complex with XPA (see below). […]

[4] = biological target: XPA (endogenous, in UV20 Chinese Hamster Ovary cells); test: cell-based or functional assay
[5] = test system: NER activity in XPF-deficient cell extracts; test: In vitro NER assay in XPF-deficient cell extract supplemented with wild-type or mutant ERCC1-XPF; assay type: biochemical; details: cisplatin crosslink plasmid
Source text: Mutations in the XPA binding pocket of ERCC1 abolish NER in vitro. […] Mutant ERCC1 proteins were generated containing N110A or Y145A single mutations or a N110A/Y145A double mutation, and their activities compared to that of the wild-type ERCC1 protein.

[6] = test system: UV20 Chinese Hamster Ovary cells; test: Restoration of UV resistance in ERCC1-deficient UV20 cells by lentivirally expressed ERCC1; assay type: cell-based
Description: Mutations in the XPA binding pocket of ERCC1 abolish NER in living cells. The ERCC1-N110A/Y145A double mutant protein was tested for its ability to interact with XPA and support NER activity in living cells. The double mutant and wild-type ERCC1 proteins were introduced into ERCC1-deficient UV20 Chinese Hamster Ovary cells using a lentiviral expression system. Proper expression of the ERCC1 proteins was detected using immunofluorescent detection using an antibody against the HA tag present on the lentivirally expressed ERCC1 protein. Two main parameters were compared for the wild-type and mutant proteins. Global NER activity was assessed by measuring the ability of the wild-type and double mutant ERCC1 proteins to restore UV resistance in UV-20 cells.

[7] = test system: UV20 cells; test: Recruitment of ERCC1 and XPA to local UV damage foci (irradiation through polycarbonate filters, immunofluorescence); assay type: cell-based, Chinese Hamster; details: UV-irradiated UV20 cells, 5 μM pore filters
Description: The interaction of ERCC1 and XPA was investigated in living cells as follows (Volker et al., 2001, Gillet and Schärer, 2006): Cells were irradiated with UV irradiation through polycarbonate filters that are only translucent to UV light through their […]. This allows for the formation of spatially defined subnuclear region UV damage that can be detected as defined foci in fixed cells by antibodies against UV lesions in DNA as well as with antibodies against NER proteins recruited to these sites during the repair process.

[8] = biological target: B5; test: sedimentation equilibrium analytical ultracentrifugation
[9] = biological target: T3, ERCC196-214 (central domain of ERCC1, …); test: competition titration, fluorescence anisotropy; reference is DNA binding to the ERCC1 central domain (1.5 µM)
[10] = biological target: B5; test: competition with 6FAM-labeled single-stranded 40mer DNA for ERCC1, fluorescence polarization, best fit to Eq. 9 (legend of FIG. 7)
[11] = biological target: T3, ERCC196-214 (central domain of ERCC1, …); test: competition with 6FAM-labeled single-stranded 40mer DNA for ERCC1, fluorescence anisotropy, fit to a competitive binding model (Eq. 9)
[12] = biological target: B5; test: 15N HSQC of the ERCC1-XPA complex, slow-exchange regime
[13] = biological target: B5; test: 15N HSQC of 15N-labeled ERCC1 with added mutant peptide (data not shown)
[14] = biological target: T4, XPA59-273 (Homo sapiens (Human), UniProt P23025 59-273); test: gel filtration (S100) of the complex; ERCC1 central domain construct (92-214 or 96-214) not specified
T4 construct: Cloned into pET19bpps; His10 tag cleaved with Prescission protease

[15] = biological target: T5, XPA1-273 (Homo sapiens (Human), UniProt P23025 1-273); test: as above
T5 construct: Cloned into pET19bpps; His10 tag cleaved with Prescission protease; also called full length XPA protein
T5 sequence (P23025 whole entry): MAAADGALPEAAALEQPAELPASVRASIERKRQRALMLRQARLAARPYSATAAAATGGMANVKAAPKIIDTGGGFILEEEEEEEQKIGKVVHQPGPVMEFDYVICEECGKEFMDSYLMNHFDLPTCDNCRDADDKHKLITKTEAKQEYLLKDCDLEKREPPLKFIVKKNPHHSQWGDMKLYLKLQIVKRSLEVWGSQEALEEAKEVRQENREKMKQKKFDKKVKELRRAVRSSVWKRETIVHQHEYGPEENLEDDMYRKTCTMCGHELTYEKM

XPA67-80^F75A: mutant XPA67-80 peptide with alanine substitution at Phe75 (KIIDTGGGAILEEE)
effect on NER excision of the lesion-containing oligonucleotide [1]: did not affect NER activity; also recorded: has no effect
effect on intrinsic nuclease activity of ERCC1-XPF [2]: do not affect
binding to 15N-labeled ERCC1 by chemical shift perturbation [3]: does not bind to ERCC1

ERCC1-N110A/Y145A double mutant protein with HA tag, lentivirally expressed in UV20 Chinese Hamster Ovary cells (from UniProt P07992 1-297)
UV resistance of UV20 cells [4]: < 50%

wild-type ERCC1: wild-type ERCC1 protein, expressed as heterodimer with XPF in insect cells or lentivirally in UV20 cells
NER activity restored by ERCC1 (heterodimer with XPF) [5]: restored NER activity
restoration of UV resistance ([6]; doses of 1, 2, 4 and 10 J/m^2): fully restored UV resistance
recruitment of ERCC1 to sites of nuclear UV damage [7]: colocalized at sites containing 6-4 photoproducts

B1
binding result [8]: binds

B2
NER activity restored by ERCC1 (heterodimer with XPF) [5]: only marginal NER activity
restoration of UV resistance [6]: less than 50%
recruitment of ERCC1 to sites of nuclear UV damage [7]: not recruited to sites of active NER

B3
fold higher affinity than single stranded DNA [9]: ~3 fold
Kd [10]: 300 nM
Kd [11]: 540 nM
Kd [12]: < 1000 nM

B4
binding result [13]: no binding

B5
binding result [14]: binds
binding result [15]: binds
